# Results taken from the supplement of paper PMC7877785.
# ± gives the uncertainty stated by the source.
# Assay: self-splicing fitness, log relative to wild type (ln ratio); higher = more splicing; Tetrahymena group I intron in knt gene, E. coli kanamycin selection, DiMSum; sequences stand for … in CUCUCU…GGAGGGAAAAGUUAUCAGGCAUGCACCUGGUAGCUAGUCUUUAAACCAAUAGAUUGCAUCGGUUUAAAAGGCAAGACCGUCAAAUUGCGGGAAAGGGGUCAACAGCCGUUCAGUACCAAGUCUCAGGGGAAACUUUGAGAUGGCCUUGCAAAGGGUAUGGUAAUAAGCUGACGGACAUGGUCCUAACCACGCAGCCAAGUCCUAAGUCAACAGAUCUUCUGUUGAUAUGGAUGCAGUUCACAGACUAAAUGUCGGUCGGGGAAGAUGUAUUCUUCUCAUAAGAUAUAGUCGGACCUCUCCUUAAUGGGAGCUAGCGGAUGAAGUGAUGCAACACUGGAGCCGCUGGGAACUAAUUUGUAUGCGAAAGUAUAUUGAUUAGUUUUGGAGUACUCGUGGUCG
# Summary of the method: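 DiMSum derived fitness as the error-weighted combination of fold changes across replicates, kanamycin versus no kanamycin, normalised to wild type. E. coli BL21(DE3) held the library, which randomised all eight P1ex-region intron nucleotides within the knt kanamycin-resistance gene on pET-22b(+). Six replicate transformations grew overnight at 37°C or 30°C on LB agar with or without 25 μg/mL kanamycin, also containing 100 μg/mL carbenicillin, 50 μM IPTG and 0.2% rhamnose, and pooled colonies were amplicon-sequenced on an Illumina HiSeq 2500.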
Sequence,self-splicing fitness (ln) (30 °C),self-splicing fitness (ln) (37 °C)
AACAAGCAAUAUUACGCUGU,-3.38 ± 0.12,-2.32 ± 0.13
AACAAGCAAUAUUACGGAAU,-2.64 ± 0.13,-1.75 ± 0.14
AACAAGCAAUAUUACGGAGC,-4.22 ± 0.3,-3.65 ± 0.36
AACAAGCAAUAUUACGGGAA,-1.57 ± 0.097,-1.86 ± 0.13
AACAAGCAAUAUUACGGGAU,-2.27 ± 0.098,-1.01 ± 0.1
AACAAGCAAUAUUACGGUAG,-3.81 ± 0.2,-2.22 ± 0.13
AACAAGCAAUAUUACGGUGC,-3.67 ± 0.16,-2.04 ± 0.12
AACAAGCAAUAUUACGUACA,-1.04 ± 0.095,-0.329 ± 0.11
AACAAGCAAUAUUACGUACU,-0.11 ± 0.05,0.496 ± 0.071
AACAAGCAAUAUUACGUAUA,-2.4 ± 0.13,-1.59 ± 0.12
AACAAGCAAUAUUACGUAUC,-4.08 ± 0.15,-2.01 ± 0.11
AACAAGCAAUAUUACGUCUG,-1.22 ± 0.058,-0.709 ± 0.076
AACAAGCAAUAUUACGUGUC,-4.91 ± 0.21,-2.96 ± 0.095
AACAAGCAAUAUUACGUUCC,-3.85 ± 0.36,-0.835 ± 0.2
AACCAGCAAUAUUACGAAGA,-2.02 ± 0.081,-0.639 ± 0.082
AACCAGCAAUAUUACGCACU,0.473 ± 0.074,0.0602 ± 0.078
AACCAGCAAUAUUACGCCCU,0.309 ± 0.089,-0.381 ± 0.13
AACCAGCAAUAUUACGCCGG,-3.39 ± 0.17,-2.09 ± 0.17
AACCAGCAAUAUUACGCGUU,-3.77 ± 0.15,-1.56 ± 0.15
AACCAGCAAUAUUACGCUUA,-0.415 ± 0.046,-0.0597 ± 0.055
AACCAGCAAUAUUACGGAGC,-2.17 ± 0.12,-1.49 ± 0.13
AACCAGCAAUAUUACGGAUC,-2.84 ± 0.11,-1.48 ± 0.1
AACCAGCAAUAUUACGGCAA,-0.217 ± 0.07,-0.0314 ± 0.082
AACCAGCAAUAUUACGGCCG,0.0592 ± 0.073,-0.223 ± 0.1
AACCAGCAAUAUUACGGGAU,-2.59 ± 0.097,-1.6 ± 0.098
AACCAGCAAUAUUACGGUGG,-2.33 ± 0.086,-1.44 ± 0.1

Sequence,self-splicing fitness (ln) (30 °C),self-splicing fitness (ln) (37 °C)
AACCAGCAAUAUUACGUACU,0.015 ± 0.053,0.248 ± 0.066
AACCAGCAAUAUUACGUAGA,-1.75 ± 0.044,-0.514 ± 0.058
AACCAGCAAUAUUACGUCAA,-1.38 ± 0.062,-1.06 ± 0.074
AACCAGCAAUAUUACGUCUA,-0.091 ± 0.062,-0.6 ± 0.067
AACGAGCAAUAUUACGAAAU,-3.74 ± 0.29,-2.26 ± 0.21
AACGAGCAAUAUUACGACAA,-2.78 ± 0.24,-0.872 ± 0.18
AACGAGCAAUAUUACGACUC,-1.14 ± 0.064,-0.414 ± 0.081
AACGAGCAAUAUUACGCAAC,-2.01 ± 0.21,-1.94 ± 0.44
AACGAGCAAUAUUACGCAAG,-3.43 ± 0.19,-2.19 ± 0.19
AACGAGCAAUAUUACGCACC,-2.32 ± 0.42,-1.65 ± 0.35
AACGAGCAAUAUUACGCCGC,-2.6 ± 0.24,-3.58 ± 0.39
AACGAGCAAUAUUACGCCGU,-3.6 ± 0.18,-1.88 ± 0.16
AACGAGCAAUAUUACGCGAA,-4 ± 0.29,-2.96 ± 0.28
AACGAGCAAUAUUACGCGAC,-2.91 ± 0.21,-2.03 ± 0.27
AACGAGCAAUAUUACGCUAA,-3.19 ± 0.35,-2.33 ± 0.16
AACGAGCAAUAUUACGCUAU,-3.9 ± 0.24,-2.18 ± 0.23
AACGAGCAAUAUUACGGAAG,-2.67 ± 0.16,-2.45 ± 0.28
AACGAGCAAUAUUACGGAGC,-3.72 ± 0.19,-2.05 ± 0.15
AACGAGCAAUAUUACGGCAC,-2.99 ± 0.22,-1.89 ± 0.29
AACGAGCAAUAUUACGGGGA,-2.72 ± 0.21,-3.6 ± 0.34
AACGAGCAAUAUUACGGGUU,-2.17 ± 0.18,-2.05 ± 0.22
AACGAGCAAUAUUACGGUGA,-3.07 ± 0.33,-1.99 ± 0.31
AACGAGCAAUAUUACGUAAU,-3.78 ± 0.15,-1.75 ± 0.12
AACGAGCAAUAUUACGUAGU,-3.97 ± 0.15,-2.24 ± 0.15
AACGAGCAAUAUUACGUAUA,-2.83 ± 0.19,-2.34 ± 0.27
AACGAGCAAUAUUACGUCGC,-2.69 ± 0.36,1.3 ± 0.3

Sequence,self-splicing fitness (ln) (30 °C),self-splicing fitness (ln) (37 °C)
AACGAGCAAUAUUACGUCUU,-1.33 ± 0.074,-0.279 ± 0.093
AACGAGCAAUAUUACGUGCG,-2.23 ± 0.11,-1.92 ± 0.15
AACUAGCAAUAUUACGAAAC,-3.3 ± 0.21,-2.94 ± 0.3
AACUAGCAAUAUUACGAACA,-1.12 ± 0.07,-0.611 ± 0.081
AACUAGCAAUAUUACGAAGG,-3.46 ± 0.2,-2.74 ± 0.26
AACUAGCAAUAUUACGACCU,-0.168 ± 0.083,0.541 ± 0.11
AACUAGCAAUAUUACGACGA,-0.137 ± 0.066,-0.576 ± 0.074
AACUAGCAAUAUUACGAGGC,-3.35 ± 0.2,-2.62 ± 0.35
AACUAGCAAUAUUACGAUAU,-1.26 ± 0.077,-0.429 ± 0.11
AACUAGCAAUAUUACGCAGG,-2.99 ± 0.15,-1.66 ± 0.14
AACUAGCAAUAUUACGCAUU,-2.19 ± 0.077,-1.09 ± 0.073
AACUAGCAAUAUUACGCGGA,-2.25 ± 0.1,-1.18 ± 0.086
AACUAGCAAUAUUACGGCCA,-0.0639 ± 0.1,-0.69 ± 0.1
AACUAGCAAUAUUACGGCGG,-1.21 ± 0.087,-0.787 ± 0.11
AACUAGCAAUAUUACGGCGU,-0.717 ± 0.072,0.0758 ± 0.085
AACUAGCAAUAUUACGGUAA,-1.49 ± 0.094,-0.267 ± 0.095
AACUAGCAAUAUUACGGUCA,-0.313 ± 0.074,0.442 ± 0.093
AACUAGCAAUAUUACGGUGC,-2.46 ± 0.16,-1.77 ± 0.15
AACUAGCAAUAUUACGUCAU,-2.91 ± 0.13,-1.21 ± 0.12
AACUAGCAAUAUUACGUCCA,-0.578 ± 0.094,-0.0353 ± 0.11
AACUAGCAAUAUUACGUCGU,-1.8 ± 0.055,-1.03 ± 0.067
AACUAGCAAUAUUACGUGGC,-3.72 ± 0.25,-1.92 ± 0.17
AACUAGCAAUAUUACGUUAA,-2.93 ± 0.24,-1.71 ± 0.23
AAGAAGCAAUAUUACGAACU,-0.3 ± 0.091,0.86 ± 0.11
